The target of series [1] is T1, complement factor D (fD) (Homo sapiens, UniProt P00746 SEQ:1-228). Put plainly: FP filter; not above naive library (3.6%); 100 nM DNA, 5 uM fD. The following applies: tags: 6xHis, label: end-labeled. The method, then:
(§1) Specificity of binding was assessed by measuring binding to casein. In all binding reactions, the oligonucleotide concentration was 100 nM, the fD concentration 5 μM and the casein concentration 20 μM.

Series [2] addresses T1, complement factor D (fD). The experiment in a line: inhibition; alternative-pathway hemolysis of rabbit RBC, C1q-depleted human serum, room temperature. The following applies: protein: extract; tags: endogenous fD in C1q-depleted human serum; label: Dy650-N30S.R.OMe 2'-OMe oligo hybridized to 3' constant region (flow assays). The method, then: Briefly, citrated rabbit blood was centrifuged at 500×g for 5 minutes at room temperature. The top plasma fraction was removed and the volume was replaced with 1× Veronal buffer containing 0.1% gelatin (prepared from 5× Veronal buffer, Lonza #12-624E and 2% gelatin solution, Sigma-Aldrich, G1393). The red blood cells were washed two more times. The washed rabbit red blood cells were diluted in 1× Veronal buffer to a concentration of 2×10⁹ cells/mL (RBCs).
In V-bottom 96-well plates the following reagents were added to a final volume of […] of 1× Veronal buffer with 0.1% gelatin, 100 μL aptamer, 30 μL of C1q-depleted human serum and 20 μL RBCs. This mixture was incubated for 25 minutes at room temperature, then the reaction was stopped by the addition of 5 μL of 500 mM EDTA. The plate was centrifuged for 5 minutes at 500×g at room temperature, then 100 μL of supernatant was removed and the extent of RBC lysis was determined by measuring absorbance at 405 nm.
C1-C3 identified in Example 1, a non-specific control oligo (C8), and one anti-fD Fab antibody fragment as described in Example 1 (AFD) were incubated with C1q-depleted human serum to allow binding to fD present in the serum, then assayed for the ability to inhibit fD-dependent lysis of rabbit red blood cells (FIG. 11). […] IC₅₀ values for C1-C3, C8 and AFD are depicted in Table 14.

The target in series [3] is T1, complement factor D (fD). The experiment in a line: FP filter; double-filter nitrocellulose binding; 100 nM DNA, 5 uM fD. Conditions: tags: 6xHis; label: end-labeled; potential G4. The method, then: as §1

T1 sequence (P00746 26-253): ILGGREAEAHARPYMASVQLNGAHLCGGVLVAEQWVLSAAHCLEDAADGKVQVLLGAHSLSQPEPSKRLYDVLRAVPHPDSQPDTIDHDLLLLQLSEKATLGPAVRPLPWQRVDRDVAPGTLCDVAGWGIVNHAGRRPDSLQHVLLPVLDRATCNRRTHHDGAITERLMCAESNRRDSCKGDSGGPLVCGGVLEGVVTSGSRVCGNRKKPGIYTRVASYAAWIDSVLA

B1: Aptamer 10 (rank 7) (ssDNA)
DNA: GTGACGACTGACATATCTGCCCTATAGGGGTGTGGGCGAGGGGTGGGTGGTAGGGCGGCTCGTAGTTGAGTCTGAGTGCT
In the case of B1, the binding signal in series [1] (potential G4) stood at 1.9 % bound.

B2: Aptamer 7 (rank 4) (ssDNA)
DNA: GTGACGACTGACATATCTGCGGCGGTTGGGGTCGAAGGGCGAGGGGTGGGAGGTCGCCGTAGTTGAGTCTGAGTGCT
As to B2, the binding signal in series [1] (potential G4) came out at 3.2 % bound.

B3: C2 (Aptamer 2) (ssRNA)
RNA: GGGAGUGUGUACGAGGCAUUAGUCCGCCGAAGUCUUUUGGCUCGGUUUUUUCAAGGUCGGCGGCUUUGAUACUUGAUCGCCCUAGAAGC
modifications: 2'-F G; 2'-OMe A, C, U
B3 yielded an IC50 in series [2] of 3.3 nM.

B4: C3 (Aptamer 3) (ssRNA)
RNA: GGGAGUGUGUACGAGGCAUUAGGCCGCCACCUCGUUUGAUUGCGGUUGUUCGGCCGCGGGCGGCUUUGAUACUUGAUCGCCCUAGAAGC
modifications: 2'-F G; 2'-OMe A, C, U
B4 gave an IC50 in series [2] of 7 nM.

B5: Aptamer 27 (rank 24) (ssDNA)
DNA: GTGACGACTGACATATCTGCGGGCGTCTGAGCGCATGGATGACCCACCGACAGATTGCGGCGTAGTTGAGTCTGAGTGCT
B5 displayed a binding signal in series [1] (non-G4) of 0.7 % bound.

B6: C1 (Aptamer 1) (ssRNA)
RNA: GGGAGUGUGUACGAGGCAUUAGGCCGCCACCCAAACUGCAGUCCUCGUAAGUCUGCCUGGCGGCUUUGAUACUUGAUCGCCCUAGAAGC
modifications: 2'-F G; 2'-OMe A, C, U
B6 returned an IC50 in series [2] of 5.1 nM.

B7: Aptamer 4 (rank 1) (ssDNA)
DNA: GTGACGACTGACATATCTGCTCCGAGGTTATTGGGGTTGGGGCCTGGGCGATTGGGGCCTCGTAGTTGAGTCTGAGTGCT
B7: in series [3], the binding signal worked out at 58.3 % bound.

B8: Aptamer 12 (rank 9) (ssDNA)
DNA: GTGACGACTGACATATCTGCAAAAGTTAGATTGACATGGTATGCACCGTCTGAGGTTGGTCGTAGTTGAGTCTGAGTGCT
For B8, the binding signal in series [1] (non-G4) amounted to 1.6 % bound.

B9: Aptamer 5 (rank 2) (ssDNA)
DNA: GTGACGACTGACATATCTGCGTTTGGGGTTGGGGCCTGGGAGTTTGGGGAGCAGAAAGGACGTAGTTGAGTCTGAGTGCT
B9 returned a binding signal in series [3] of 63 % bound.

B10: Aptamer 8 (rank 5) (ssDNA)
DNA: GTGACGACTGACATATCTGCTATTTTGGGGCCTGGGTGTTGGGGATTGGGGACTATGTGTCGTAGTTGAGTCTGAGTGCT
For B10, in series [3], the binding signal came out at 60.3 % bound.

B11: Aptamer 15 (rank 12) (ssDNA)
DNA: GTGACGACTGACATATCTGCTGCTTCCAGCGGTCATGATATGCACTGTCTGAAGCTCGGTCGTAGTTGAGTCTGAGTGCT
For B11, the binding signal in series [1] (non-G4) came out at 0.4 % bound.

The values are drawn from US20180051287, “COMPOSITIONS AND METHODS FOR INHIBITING FACTOR D” (Vitrisa Therapeutics, Inc., published 2018).
